Measured values published in doi:10.1101/2020.11.04.368837 (bioRxiv, 2020).

Assays:
[1] = biological target: the molecule itself; experiment: native gel or EMSA
[2] = biological target: the molecule itself; experiment: AUC
[3] = biological target: the molecule itself; experiment: single-particle cryo-EM, 2D class averages

Protein	stoichiometry N [1]	ratio between dimer and tetramer population [2]	stoichiometry N [3]
recombinant human TRAP1 (mitochondrial Hsp90), wild type (natural protein, UniProt Q12931 60-704, looked up) STQTAEDKEEPLHSIISSTESVQGSTSKHEFQAETKKLLDIVARSLYSEKEVFIRELISNASDALEKLRHKLVSDGQALPEMEIHLQTNAEKGTITIQDTGIGMTQEELVSNLGTIARSGSKAFLDALQNQAEASSKIIGQFGVGFYSAFMVADRVEVYSRSAAPGSLGYQWLSDGSGVFEIAEASGVRTGTKIIIHLKSDCKEFSSEARVRDVVTKYSNFVSFPLYLNGRRMNTLQAIWMMDPKDVREWQHEEFYRYVAQAHDKPRYTLHYKTDAPLNIRSIFYVPDMKPSMFDVSRELGSSVALYSRKVLIQTKATDILPKWLRFIRGVVDSEDIPLNLSRELLQESALIRKLRDVLQQRLIKFFIDQSKKDAEKYAKFFEDYGLFMREGIVTATEQEVKEDIAKLLRYESSALPSGQLTSLSEYASRMRAGTRNIYYLCAPNRHLAEHSPYYEAMKKKDTEVLFCFEQFDELTLLHLREFDKKKLISVETDIVVDHYKEEKFEDRSPAAECLSEKETEELMAWMRNVLGSRVTNVKVTLRLDTHPAMVTVLEMGAARHFLRMQQLAKTQEERAQLLQPTLEINPRHALIKKLNQLRASEPGLAQLLVDQIYENAMIAAGLVDDPRAMVGRLNELLVKALERH	4	7 dimer:tetramer (7:1)	
TRAP1 fused with SpyCatcher at the C-terminus (TRAP1_(SpyCatcher)) (natural protein, human, UniProt Q12931 60-704, looked up) STQTAEDKEEPLHSIISSTESVQGSTSKHEFQAETKKLLDIVARSLYSEKEVFIRELISNASDALEKLRHKLVSDGQALPEMEIHLQTNAEKGTITIQDTGIGMTQEELVSNLGTIARSGSKAFLDALQNQAEASSKIIGQFGVGFYSAFMVADRVEVYSRSAAPGSLGYQWLSDGSGVFEIAEASGVRTGTKIIIHLKSDCKEFSSEARVRDVVTKYSNFVSFPLYLNGRRMNTLQAIWMMDPKDVREWQHEEFYRYVAQAHDKPRYTLHYKTDAPLNIRSIFYVPDMKPSMFDVSRELGSSVALYSRKVLIQTKATDILPKWLRFIRGVVDSEDIPLNLSRELLQESALIRKLRDVLQQRLIKFFIDQSKKDAEKYAKFFEDYGLFMREGIVTATEQEVKEDIAKLLRYESSALPSGQLTSLSEYASRMRAGTRNIYYLCAPNRHLAEHSPYYEAMKKKDTEVLFCFEQFDELTLLHLREFDKKKLISVETDIVVDHYKEEKFEDRSPAAECLSEKETEELMAWMRNVLGSRVTNVKVTLRLDTHPAMVTVLEMGAARHFLRMQQLAKTQEERAQLLQPTLEINPRHALIKKLNQLRASEPGLAQLLVDQIYENAMIAAGLVDDPRAMVGRLNELLVKALERH			4
